How the values were obtained:
[1] = target: HLA-A*32:01; assay: IEDB peptide-MHC binding, purified MHC/competitive/radioactivity; filed as Kd, often an IC50 or EC50 that approximates it; ≥ and ≤ were set here for values at or beyond the usual limits of such assays; conditions: source organism: Dengue virus 4 Singapore/8976/1995
[2] = target: HLA-B*44:02; assay: as above
[3] = target: HLA-A*24:02; assay: IEDB peptide-MHC binding, purified MHC/competitive/fluorescence; ≥ and ≤ were set here for values at or beyond the usual limits of such assays
[4] = target: HLA-A*02:01; assay: as above; conditions: source organism: Zaire ebolavirus
[5] = target: HLA-B*44:03; assay: IEDB peptide-MHC binding, purified MHC/competitive/radioactivity; filed as Kd, often an IC50 or EC50 that approximates it; ≥ and ≤ were set here for values at or beyond the usual limits of such assays
[6] = target: HLA-B*40:01; assay: as above
[7] = target: HLA-A*02:02; assay: as above
[8] = target: HLA-A*68:02; assay: as above
[9] = target: HLA-A*02:03; assay: as above
[10] = target: HLA-A*02:06; assay: as above
[11] = target: HLA-B*53:01; assay: as above
[12] = target: HLA-B*51:01; assay: as above
[13] = target: HLA-B*07:02; assay: as above
[14] = target: HLA-B*15:03; assay: as above; conditions: source organism: Vaccinia virus WR
[15] = target: HLA-A*24:03; assay: IEDB peptide-MHC binding, purified MHC/direct/fluorescence; filed as Kd, often an IC50 or EC50 that approximates it; ≥ and ≤ were set here for values at or beyond the usual limits of such assays; conditions: source organism: Vibrio parahaemolyticus
[16] = target: HLA-B*08:01; assay: IEDB peptide-MHC binding, purified MHC/competitive/radioactivity; filed as Kd, often an IC50 or EC50 that approximates it; ≥ and ≤ were set here for values at or beyond the usual limits of such assays; conditions: source organism: Dengue virus 2 Jamaica/1409/1983
[17] = target: HLA-B*15:01; assay: IEDB peptide-MHC binding, purified MHC/competitive/fluorescence; filed as Kd, often an IC50 or EC50 that approximates it; ≥ and ≤ were set here for values at or beyond the usual limits of such assays; conditions: source organism: Yersinia pestis
[18] = source organism: Zaire ebolavirus
[19] = source organism: Dengue virus 4 Dominica/814669/1981
[20] = source organism: Dengue virus 2 Jamaica/1409/1983
[21] = source organism: Mammarenavirus whitewaterense
[22] = source organism: Dengue virus 1 Singapore/S275/1990
[23] = source organism: Dengue virus 1 Brazil/97-11/1997
[24] = source organism: Dengue virus 3 Martinique/1243/1999
[25] = source organism: Dengue virus 4 Philippines/H241/1956
[26] = source organism: Lassa virus Josiah
[27] = source organism: Dengue virus 3 Sri Lanka/1266/2000

Sequence: ADMGCVVSW
- Kd [1]: 415 nM
- Kd ([2]; source organism: Dengue virus 4 Singapore/8976/1995): 10.6 nM

Sequence: AENTNTSKS
- IC50 [3, 18]: ≥ 534000 nM
- IC50 [4]: ≥ 187000 nM

Sequence: AERIGEPDY
- Kd [2, 19]: 203 nM
- Kd [5, 19]: 797 nM

Sequence: AETQHGTIV
- Kd [6, 20]: 15.1 nM
- Kd [5, 20]: 225 nM

Sequence: AGIAWIPYF
- IC50 ([3]; source organism: Sudan ebolavirus): 2640 nM

Sequence: ALNIALIAV
- Kd [7, 21]: 0.699 nM
- Kd [8, 21]: 3090 nM
- Kd [9, 21]: 0.225 nM
- Kd [10, 21]: 100 nM

Sequence: AMKAQFERDL
- Kd ([8]; source organism: Homo sapiens): ≥ 60000 nM

Sequence: CVMASSVLL
- Kd [8, 22]: 1.46 nM

Sequence: EPGQLKLNW
- Kd [11, 20]: 33.1 nM

Sequence: EPHWIAASI
- Kd [12, 23]: 172 nM
- Kd [13, 23]: 267 nM
- Kd [11, 23]: 333 nM

Sequence: EPPFGDSYI
- Kd [12, 20]: 349 nM

Sequence: FARDNQISF
- Kd [14]: 0.195 nM

Sequence: FDLCEGTTVV
- Kd [12, 23]: 10500 nM

Sequence: FETYQLWTAL
- Kd [6, 24]: 10.4 nM
- Kd [12, 24]: 1900 nM

Sequence: FFPMVTDAW
- Kd [15]: ≤ 1 nM

Sequence: FGRAKGSRAI
- Kd [12, 25]: 14500 nM

Sequence: FLFLNINHY
- Kd [14]: 6.46 nM

Sequence: FLVIAINAM
- Kd [14]: 440 nM

Sequence: FSLGVLGMAL
- Kd [12, 20]: 3860 nM
- Kd [10, 20]: 3.5 nM

Sequence: FSRGNSLSGV
- Kd [12, 20]: 11100 nM

Sequence: FTVHADTGCA
- Kd [8, 25]: 134 nM

Sequence: GEWKEGEEV
- Kd [6, 20]: 295 nM
- Kd [2, 20]: 16300 nM

Sequence: GEYRLKGESR
- Kd [6, 24]: 4130 nM

Sequence: GLYKQPGVPV
- Kd [7, 26]: 1400 nM
- Kd [8, 26]: ≥ 5000 nM
- Kd [9, 26]: 23.8 nM
- Kd [10, 26]: 804 nM

Sequence: GPLIAGGMLI
- Kd [12, 23]: 18800 nM

Sequence: GPLKLFMAL
- Kd [12, 20]: ≥ 77400 nM
- Kd [16]: 19.3 nM
- Kd [13, 20]: 2.35 nM
- Kd [11, 20]: 1010 nM

Sequence: GTFHTMWHV
- Kd [8, 20]: 12.2 nM
- Kd [10, 20]: 7.33 nM

Sequence: IENTSANLSL
- Kd [6, 25]: 34.4 nM

Sequence: IETLMLLALI
- Kd [6, 23]: 206 nM
- Kd [5, 23]: 1050 nM

Sequence: IFVIDNVHTW
- Kd [11, 25]: 500 nM

Sequence: IKYMIGNFM
- Kd [14]: 2.15 nM

Sequence: IMSLFSTSA
- Kd [14]: 7.67 nM

Sequence: IPMTGPLVA
- Kd [13, 20]: 50.7 nM

Sequence: IPPEKCDTL
- Kd ([12]; source organism: Dengue virus 2 16681-PDK53): ≥ 77400 nM

Sequence: KEENLVKSM
- Kd [6, 22]: 2830 nM

Sequence: KEYTYPDSL
- IC50 [3, 18]: ≥ 184000 nM

Sequence: KKNNRVLCF
- Kd [14]: 1.59 nM

Sequence: LEKKITQWL
- Kd [6, 27]: 191 nM
- Kd [2, 27]: 331 nM

Sequence: LENDEDCAHW
- Kd [2, 20]: 103 nM
- Kd [5, 20]: 103 nM

Sequence: LETRTETWM
- Kd [6, 20]: 253 nM

Sequence: LEVNNPTPF
- Kd [17]: 98 nM

Sequence: LPVWLSYKV
- Kd [12, 23]: 418 nM
- Kd [11, 23]: 164 nM

Sequence: LSIPATLFVW
- Kd [11, 22]: 92.8 nM

Sequence: LSVSLVLVGV
- Kd [8, 20]: 12.2 nM
- Kd [10, 20]: 75.5 nM
